Assay results reported in paper PMC12109899, “Aptamer-Based Planar Electric Double-Layer Field-Effect Transistor: A Novel Approach for Sensitive Troponin I Sensing”.

Target: cardiac troponin I (cTnI, TnI) (UniProt P19429 2-210)
Test: fluorescence decrease of surface-immobilized FAM aptamer; aptamer on gold electrode; pH 7.4; 0.02x PBS stated for the chip rinse; aptamer immobilized at 24 °C for 24 h; binding temperature not given
Details: label: 3' FAM; single strand

Sequence of cardiac troponin I (cTnI, TnI) (P19429 2-210): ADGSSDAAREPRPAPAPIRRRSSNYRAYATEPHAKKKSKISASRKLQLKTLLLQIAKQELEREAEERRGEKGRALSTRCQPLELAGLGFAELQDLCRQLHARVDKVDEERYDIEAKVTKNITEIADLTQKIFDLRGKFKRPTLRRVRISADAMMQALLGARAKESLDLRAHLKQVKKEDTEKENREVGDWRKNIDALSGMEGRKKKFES

B1: Tro4 aptamer (ssDNA)
DNA: CGTGCAGTACGCCAACCTTTCTCATGCGCTGCCCCTCTTA
modifications: 5' disulfide (S-S), reduced with TCEP to thiol; immobilized on gold
B1: binds.
